{"source": "IntAct's records for PubMed 11779505", "parents": {"B1": {"name": "Mothers against decapentaplegic homolog 4 (Homo sapiens), Q13485 (parent)", "chain": "MDNMSITNTPTSNDACLSIVHSLMCHRQGGESETFAKRAIESLVKKLKEKKDELDSLITAITTNGAHPSKCVTIQRTLDGRLQVAGRKGFPHVIYARLWRWPDLHKNELKHVKYCQYAFDLKCDSVCVNPYHYERVVSPGIDLSGLTLQSNAPSSMMVKDEYVHDFEGQPSLSTEGHSIQTIQHPPSNRASTETYSTPALLAPSESNATSTANFPNIPVASTSQPASILGGSHSEGLLQIASGPQPGQQQNGFTGQPATYHHNSTTTWTGSRTAPYTPNLPHHQNGHLQHHPPMPPHPGHYWPVHNELAFQPPISNHPAPEYWCSIAYFEMDVQVGETFKVPSSCPIVTVDGYVDPSGGDRFCLGQLSNVHRTEAIERARLHIGKGVQLECKGEGDVWVRCLSDHAVFVQSYYLDREAGRAPGDAVHKIYPSAYIKVFDLRQCHRQMQQQAATAQAAAAAQAAAVAGNIPGPGSVGGIAPAISLSAAAGIGVDDLRRLCILRMSFVKGWGPDYPRQSIKETPCWIEIHLHRALQLLDEVLHTMPIADPQPLD"}}}
{"variants_of": "B1", "details": "with smad1_human SMAD1, Q15797"}
{"variant": "D537E", "effect of a mutation on the interaction": "decreasing interaction strength"}
{"variant": "D351H", "effect of a mutation on the interaction": "disrupting interaction strength"}
{"variant": "R515S", "effect of a mutation on the interaction": "disrupting interaction strength"}
{"variant": "V426S", "effect of a mutation on the interaction": "decreasing interaction strength"}
{"variant": "K507S", "effect of a mutation on the interaction": "disrupting interaction strength"}
